The text below walks through data of CN116082503A.

The target of the assay is T细胞表面未知蛋白 (unknown protein on the surface of CD3+ T cells). Nature of the assay: cell-based or functional assay.

With “IGSF9-ECD-His (带有His标签的人IGSF9胞外区蛋白) (receptor)”, the T细胞增殖抑制, 剂量依赖 (dose at which inhibition of T cell proliferation becomes evident) was > 0.5 µg.
